Experimental data: patent US20190300613A1 (TUSK THERAPEUTICS, published 2019)
Blank lines part the entries; values can stand above or below the binder they belong to.

What was measured:
[1] = target: T1, recombinant human CD25 his tagged (human, UniProt P01589 22-240); assay: SPR, Biacore 2000: IgG1 captured on the chip, rhCD25-his tag as analyte
T1 construct: also called rhCD25; rhCD25-his tag; not shown: His tag
T1 sequence: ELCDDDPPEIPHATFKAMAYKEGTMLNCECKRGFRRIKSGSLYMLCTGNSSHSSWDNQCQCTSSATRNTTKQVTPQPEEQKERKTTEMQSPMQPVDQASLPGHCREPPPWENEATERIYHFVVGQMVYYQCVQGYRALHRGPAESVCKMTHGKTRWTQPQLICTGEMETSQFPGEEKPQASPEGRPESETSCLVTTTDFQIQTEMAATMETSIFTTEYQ

[2] = target: T1, recombinant human CD25 his tagged; assay: as above; remark: listed apart in the source
[3] = target: T1, recombinant human CD25 his tagged; assay: BLI, ForteBio Octet Red96, IgG on AHC sensors, rhCD25-His in solution, global 1:1 fit
Procedure: Sensors were equilibrated off-line in assay buffer for 10 min and then monitored on-line for 60 seconds for baseline establishment. […] Then, 1:3 serial dilutions (from 1 uM to 4 nM) of recombinant human CD25 HIS tagged was associated to the loaded IgG for 10 min. Afterwards they were transferred to assay buffer for 6.6 min for off-rate measurement. Kinetics data were fit using a global 1:1 binding model in the ForteBio Data Analysis Software 9.0 with reference subtraction.

[4] = target: T2, human CD25 expressed on cells (human, UniProt P01589 22-272); assay: flow cytometry on CD3/CD28 bead activated human Pan T cells, gated on CD4+ T cells
T2 construct: Endogenous CD25 on human cell lines and primary cells
T2 sequence: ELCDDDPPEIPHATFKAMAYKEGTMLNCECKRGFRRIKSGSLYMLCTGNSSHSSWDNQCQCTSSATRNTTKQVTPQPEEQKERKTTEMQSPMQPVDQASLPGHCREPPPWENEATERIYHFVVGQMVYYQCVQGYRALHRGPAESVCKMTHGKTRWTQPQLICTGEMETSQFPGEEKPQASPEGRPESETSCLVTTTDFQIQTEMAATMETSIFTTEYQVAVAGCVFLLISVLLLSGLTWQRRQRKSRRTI
Procedure: (§1) Binding to CD25 expressing activated human and Cynomolgus monkey PMBC was examined by staining test articles (anti-CD25 primary antibodies) with 20 μg/ml antibodies followed by semi-log dilution series (7-point) for 30 minutes on ice. This was followed by staining with a secondary antibody (rabbit anti-human Fcg F(ab′)2-(Jackson ImmunoResearch)) concentration of 5 μg/ml for 30 minutes on ice. All samples were stained in triplicates. To minimize cross-linking induced cell death mediated by binding of the secondary antibody, cell lines were examined in staining cohorts of 4 test articles at a time. Live lymphocytes were gated using FSC vs SSC parameters by flow cytometry during sample acquisition. Mean fluorescence intensity (MFI) of gated CD4⁺ and CD8⁺ T cell subsets were plotted on an XY chart, graphing MFI against the log of the concentration, and the data fit to a non-linear regression curve from which the EC50 was calculated.

[5] = target: T2, human CD25 expressed on cells; assay: flow cytometry on CD3/CD28 bead activated human Pan T cells, gated on CD8+ T cells
Procedure: as §1

[6] = target: T1, recombinant human CD25 his tagged; assay: SPR, Biacore 2000, IgG captured by anti-human antibody on CM5, rhCD25-His as analyte, two state reaction fit
Procedure: Anti-human antibody was initially immobilised across all flow cells in analysis buffer (pH 7.4, 10 mM HEPES, 150 mM NaCl, 3 mM EDTA, 0.05% Tween 20) to an RU of between 12,000-14,000 over 10 minutes. […] Dissociation was performed in analysis buffer over 10 minutes. Regeneration steps between sample concentrations were performed in 10 mM Glycin pH1.7 for 10 minutes. A flow rate of 25 μl/min was maintained throughout the process. Kinetics data were fit using a global two state reaction conformational change analysis software provided by Biacore with reference subtraction.

[7] = target: T3, human CD25 antigen, R&D Systems cat no. 223-2A/CF (~10% dimer) (human, UniProt P01589 22-213, limits assumed); assay: SPR, Biacore T200, antibody captured by anti-human Fab on CM5, CD25 as analyte, Two State Reaction fit; column printed as 'Binding strength'
T3 construct: Bought protein; also called R&D Systems (~10% dimer)
T3 sequence: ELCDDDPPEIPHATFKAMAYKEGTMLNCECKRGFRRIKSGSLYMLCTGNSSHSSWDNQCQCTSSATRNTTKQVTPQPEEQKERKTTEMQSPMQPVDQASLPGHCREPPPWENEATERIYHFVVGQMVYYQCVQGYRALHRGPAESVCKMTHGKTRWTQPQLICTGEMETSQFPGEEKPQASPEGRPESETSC
Source text: (§2) Binding of CD25 antibodies to human CD25 antigen was investigated by surface plasmon resonance using a BIACORE T200 instrument (GE Healthcare).
(§3) For calculation of KD and kinetic parameters Biacore provided fitting models were used to obtain optimal curve fitting results. The 1:1 Langmuir fit was used for P1AA5872 and the Two State Kinetic fitting for CD25 from Sino Biologicals and R&D Systems.

[8] = target: T4, inhouse produced monomeric human CD25 antigen (P1AA5872) (human, UniProt P01589 22-240, limits assumed); assay: SPR, Biacore T200, antibody captured by anti-human Fab on CM5, monomeric CD25 as analyte, 1:1 Langmuir fit; column printed as 'Binding strength'
T4 construct: also called Inhouse (0% dimer)
T4 sequence: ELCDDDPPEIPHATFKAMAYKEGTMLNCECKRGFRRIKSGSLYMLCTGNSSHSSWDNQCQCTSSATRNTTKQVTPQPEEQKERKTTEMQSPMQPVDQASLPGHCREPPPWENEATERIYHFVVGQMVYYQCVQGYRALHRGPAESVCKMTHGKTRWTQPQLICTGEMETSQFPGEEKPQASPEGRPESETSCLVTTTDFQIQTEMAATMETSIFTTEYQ
Source text: as §2, §3

[9] = target: T5, human CD25 antigen, Sino Biologicals cat no. 10165-H08H (~20% dimer) (human, UniProt P01589 22-213); assay: SPR, Biacore T200, antibody captured by anti-human Fab on CM5, CD25 as analyte, Two State Reaction fit; column printed as 'Binding strength'; Sino Biological CD25 (~20% dimer), Two State Reaction fit
T5 construct: Bought protein; also called Sino biological (~20% dimer)
T5 sequence: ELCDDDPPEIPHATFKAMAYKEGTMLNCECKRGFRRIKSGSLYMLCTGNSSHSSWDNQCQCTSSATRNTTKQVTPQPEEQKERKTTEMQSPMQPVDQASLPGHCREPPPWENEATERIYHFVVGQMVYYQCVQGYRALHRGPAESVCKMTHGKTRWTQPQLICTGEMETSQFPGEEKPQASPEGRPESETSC
Source text: as §2, §3

[10] = target: T1, recombinant human CD25 his tagged; assay: SPR, Biacore 2000: IgG1 captured on the chip, rhCD25-his tag as analyte; remark: listed apart in the source
[11] = target: T1, recombinant human CD25 his tagged; assay: as above; remark: listed apart in the source
[12] = target: T1, recombinant human CD25 his tagged; assay: as above; remark: listed apart in the source

B1: aCD25-a-646-m2 (antibody, IgG1, V domains shown)
VH: QVQLVESGGGLVQPGGSLRLSCAASGFTFPSYGMHWVRQAPGKGLEWVAVIWYDAINKYYADSVKGRFTISRDNSKNTLYLQMNSLRAEDTAVYYCARDLGYGDYAAHDYWGQGTLVTVSS
VL: DIQMTQSPSTLSASVGDRVTITCRASQSISSWLAWYQQKPGKAPKLLIYKASSLESGVPSRFSGSGSGTEFTLTISSLQPDDFATYYCQQHNTHPYTFGGGTKVEIK
Kd [1]: 0.36 nM

B3: aCD25-a-646 (antibody, V domains shown)
VH: QVQLVESGGGVVQPGRSLRLSCAASGFTFSSYGMHWVRQAPGKGLEWVAVIWYDGSNKGYADSVKGRFTISRDNSKNTLYLQMNSLRAEDTAVYYCARDLGYGDYAAHDYWGQGTLVTVSS
VL: DIQMTQSPSTLSASVGDRVTITCRASQSISSWLAWYQQKPGKAPKLLIYKASSLESGVPSRFSGSGSGTEFTLTISSLQPDDFATYYCQQHNTHPYTFGGGTKVEIK
notes: also called parental clone
Kd [3]: 3.65 nM | EC50 (read off the curve) [4]: ~0.2 µg/mL | EC50 (read off the curve) [5]: ~0.2 µg/mL | Kd [6]: 3.8 nM | Kd [7]: 15 nM | Kd [8]: 77 nM | Kd [9]: 8.5 nM

B5: aCD25-a-646-m1 (antibody, IgG1, V domains shown)
VH: EVQLVESGGGLVKPGGSLRLSCAASGFTFASYGMHWVRQAPGKGLEWVAVIWYDASTKYYADSVKGRFTISRDNSKNTLYLQMNSLRAEDTAVYYCARDLGYGDYAAHDYWGQGTLVTVSS
VL: DIQMTQSPSTLSASVGDRVTITCRASQSISSWLAWYQQKPGKAPKLLIYKASSLESGVPSRFSGSGSGTEFTLTISSLQPDDFATYYCQQHNTHPYTFGGGTKVEIK
Kd [11]: 1.43 nM

Further lines, results first:

Kd [2]: 0.31 nM
B2: aCD25-a-646-m5 (antibody, IgG1, V domains shown)
VH: EVQLLESGGGLVQPGGSLRLSCAASGFTFPSYGMHWVRQAPGKGLEWVAVIWYDALNKYYADSVKGRFTISRDNSKNTLYLQMNSLRAEDTAVYYCARDLGYGDYAAHDYWGQGTLVTVSS
VL: DIQMTQSPSTLSASVGDRVTITCRASQSISSWLAWYQQKPGKAPKLLIYKASSLESGVPSRFSGSGSGTEFTLTISSLQPDDFATYYCQQHNTHPYTFGGGTKVEIK

Kd [10]: 0.42 nM
B4: aCD25-a-646-m3 (antibody, IgG1, V domains shown)
VH: QVQLVESGGGVVQPGRSLRLSCAASGFTFPSYGMHWVRQAPGKGLEWVAVIWYDAVNKYYADSVKGRFTISRDNSKNTLYLQMNSLRAEDTAVYYCARDLGYGDYAAHDYWGQGTLVTVSS
VL: DIQMTQSPSTLSASVGDRVTITCRASQSISSWLAWYQQKPGKAPKLLIYKASSLESGVPSRFSGSGSGTEFTLTISSLQPDDFATYYCQQHNTHPYTFGGGTKVEIK

Kd [12]: 0.56 nM
B6: aCD25-a-646-m4 (antibody, IgG1, V domains shown)
VH: QVQLVESGGGVVQPGRSLRLSCAASGFTFPSYGMHWVRQAPGKGLEWVAVIWYDASTKYYADSVKGRFTISRDNSKNTLYLQMNSLRAEDTAVYYCARDLGYGDYAAHDYWGQGTLVTVSS
VL: DIQMTQSPSTLSASVGDRVTITCRASQSISSWLAWYQQKPGKAPKLLIYKASSLESGVPSRFSGSGSGTEFTLTISSLQPDDFATYYCQQHNTHPYTFGGGTKVEIK
